Experimental data from US11111484B2, “Streptococcus bacteriophage lysins for detection and treatment of gram positive bacteria” (priority 2011, dated 2021).
Several values for one entry are separate records, joined by “and”; a condition that tells them apart may be missing. Equal values may be shown once. Entries after “also recorded” stand apart in the source; their conditions may differ.

How the values were obtained:
[1] = tested on: B. cereus 14579; experiment: ΔPlySs1 OD600 lysis, 1 hr, optimal buffering conditions; format: cell-based, Bacillus cereus
[2] = tested on: S. epidermidis HN1292; experiment: as above; format: cell-based, Staphylococcus epidermidis
[3] = tested on: S. pyogenes strain MGAS5005; experiment: murine septicemia model, S. pyogenes infection alone; format: in vivo, FVB/NJ mice; conditions: PlySs2 2 mg
Method: The Rockefeller University's Institutional Animal Care and Use Committee approved all in vivo protocols. A systemic infection model described in Daniel, A. et al., was used to test for the in vivo efficacy of PlySs2 against multiple gram-positive bacteria. Briefly, 4-5 week old female FVB/NJ mice (weight range 15 to 20 g) were obtained from The Jackson Laboratory (Bar Harbor, Me.). After a period of acclimation, mice were injected intraperitoneally (IP) with 0.5 ml of mid log-phase (OD600 0.5) bacteria diluted with 5% hog gastric mucin (Sigma) in saline. Bacterial suspensions contained ˜5×10^5 CFU/ml of MW2, a PVL toxin-encoding MRSA strain, ˜1×10^7 of MGAS5005, an M1 serotype of Streptococcus pyogenes that is virulent in humans and mice (Musser), or a combination of both bacteria simultaneously at the above concentrations for the mix infection experiments. Actual bacterial inoculation titers were calculated by serial dilution and plating to Columbia blood agar plates for each experiment. Mice became bacteremic within one to three hours and contained MRSA and/or S. pyogenes in their organs (including spleen, liver, kidney, and heart/blood) ([50], and unpublished observations). […] The survival rate for each experimental group was monitored every 12 hours for the first 24 hours then every 24 hours up to 10 days post-infection. The data were statistically analyzed by Kaplan Meier Survival curves and a Logrank test performed for 95% confidence intervals using the Prism computer program (GraphPad Software; La Jolla, Calif.).
To determine if the broad lytic activity of PlySs2 could provide in vivo protection from infection with gram-positive pathogens, either alone or as a mixed infection, FVB/NJ mice were intraperitoneally injected with ˜5×10^5 CFU of MRSA strain MW2, ˜1×10^7 of S. pyogenes strain MGAS5005 and/or both bacteria simultaneously at the concentrations above. […] Mice were then monitored for survival over ten days. […]

[4] = tested on: E. coli; experiment: MIC studies; format: cell-based, Escherichia coli; conditions: E. coli negative control
Method: The Wiegand, et al. protocol to determine minimum inhibitory concentrations was followed with adjustments detailed below. A final suspension of ≈5×10^5 cells/ml in MHB (or BHI for S. pyogenes) resulted after Sterile-filtered lysin or vehicle was added at the appropriate concentration. These tests were distributed within a 96-well microtiter plate. The MIC's were determined, in this experiment, by detection of pellet formation in the bottom of rounded polysterene plate wells. They were also corroborated colorimetrically with alamarBlue®.

[5] = tested on: MRSA; experiment: rat MRSA wound infection with sterile sand (foreign body); format: in vivo, rats; conditions: for CFU/Gram, AVG: 10 mg PlySs2 single dose, 15 rats, after 10 days, not true Avg since < values
Method: Animal experiments were initiated by determining the infectious dose of MRSA necessary to cause infection in the rat wound. […] However, when we added a foreign body ([…]), infection occurred at <10^8 CFUs. Specifically, incisions were made in the backs of the rats (5-6 cm in length) and a 2-3 mm incision was made in the underlying tissue. To this was added 100 mg sterile sand and 50 μl of MRSA. The wounds were stapled closed and the animals followed for 10 days and the wounds opened and examined for gross changes and tissue samples taken for bacteriological examination.
Samples (weighed and homogenized tissue) taken from the opened wound yielded about 10^7 CFU MRSA/gram of tissue. This model was very reproducible yielding the same results in at least 10 animals.
We used the model as described above to treat with PlySs2 lysin to determine the effects of the treatment. In this case, half of the animals receiving the MRSA and sand were treated with 10 mg PlySs2 in 50 ul of phosphate buffer (PB), control animals received PB instead 10 minutes after MRSA dosing. The animals were followed for 10 days. At this time the animals were analyzed for gross changes and microbiology. […] This is in sharp contrast to animals treated with a single dose of PlySS2.

[6] = tested on: cultures from the oral cavities of two rats; experiment: rat oral cavity microbiota study, drops on culture lawns; format: cell-based, rat oral bacteria; conditions: 10 μL PlySs2 drops on BHI agar lawns; the one culture confirmed as S. aureus

B1: ΔPlySs1: truncated PlySs1 lysin, SEQ ID NO:2, N-terminal 254 amino acids: only N-terminal enzymatic and central binding domains (protein, listed as Streptococcus suis)
chain: MTINLETSIRWMSDRVGKVSYSMDYRNGPNSYDCSSAVYYALMAGGAISAGWAVNTEYMHDWLIRNGYVLVAENKPFNAQRHDVCILGKRGYSSGAGGHVVIFVDNVNVIHCNYARNGISIDNYNQVHRGMYYYLYRPANQPSISNKSLDQLVKETLAGVHGNGDTRKASLGSQYEAVMAVINGKASASEKSDEELAREVLAGKHGAGEDRKRSLGPRYEPVQAKVNELLKAKEKPSETAKNEPQTVQFKEDGDL
[1]; 6.5 μg/ml
  lysis value after 1 hr (treated/untreated OD600 ratio): 0.93
[1]; 13 μg/ml
  lysis value after 1 hr (treated/untreated OD600 ratio): 0.92
[1]; 30 μg/ml
  lysis value after 1 hr (treated/untreated OD600 ratio): 0.86
[1]; 65 μg/ml
  lysis value after 1 hr (treated/untreated OD600 ratio): 0.90
[1]; 130 μg/ml
  lysis value after 1 hr (treated/untreated OD600 ratio): 0.86
[2]; 6.5 μg/ml
  lysis value after 1 hr (treated/untreated OD600 ratio): 1.04
[2]; 13 μg/ml
  lysis value after 1 hr (treated/untreated OD600 ratio): 1.00
[2]; 30 μg/ml
  lysis value after 1 hr (treated/untreated OD600 ratio): 0.96
[2]; 65 μg/ml
  lysis value after 1 hr (treated/untreated OD600 ratio): 0.94
[2]; 130 μg/ml
  lysis value after 1 hr (treated/untreated OD600 ratio): 0.87

B2: PlySs2: Streptococcus suis prophage lysin, SEQ ID NO:3; N-terminal CHAP domain and C-terminal SH3-type 5 domain (protein, listed as Streptococcus suis)
chain: MTTVNEALNNVRAQVGSGVSVGNGECYALASWYERMISPDATVGLGAGVGWVSGAIGDTISAKNIGSSYNWQANGWTVSTSGPFKAGQIVTLGATPGNPYGHVVIVEAVDGDRLTILEQNYGGKRYPVRNYYSAASYRQQVVHYITPPGTVAQSAPNLAGSRSYRETGTMTVTVDALNVRRAPNTSGEIVAVYKRGESFDYDTVIIDVNGYVWVSYIGGSGKRNYVATGATKDGKRFGNAWGTFK
[3]
  mice died at day three (dead/total): 1/16
[3]; PlyC 1 mg
  survival over 10 days: 94%
  survival over 10 days (mice surviving/total): 15/16
[4]
  minimum inhibitory concentration (MIC): too high to calculate; also recorded: immeasurable
[5]; 10 mg PlySs2 single dose 10 minutes after MRSA, wound tissue after 10 days
  CFU/Gram, individual rats P1-P15: <5.00E+01 CFU/Gram (10×) and 9.10E+01 CFU/Gram and 5.00E+01 CFU/Gram and 8.40E+02 CFU/Gram and 3.20E+02 CFU/Gram (2×)
[5]
  CFU/Gram, AVG: 1.41×10^2 CFU/Gram
[5]; listed as PLYSS2
  CFU/Gram, AVG: 1.41E+02 CFU/Gram
[5]; AVG buffer / AVG PlySs2
  CFU Reduction vs Control: CFU Reduction vs Control 3.02E+04
[5]; PlySs2 vs buffer, wound tissue after 10 days
  reduction of MRSA: > 4 logs
[5]; single dose of PlySS2, 10 days
  gross changes of wounds: did not exhibit pus or necrosis and exhibited better healing
[6]
  clearing zone around drops on lawns of 6 rat oral cultures: only appeared on one culture
